This is an account of results in PMC10066265, “Inhibitor-3 inhibits Protein Phosphatase 1 via a metal binding dynamic protein–protein interaction” (Nature Communications, 2023).

A word on the Kd: it is a measure of binding affinity in units of concentration. In general, koff refers to the first-order rate constant of dissociation. The low end stands for slow dissociation, the high end for fast dissociation. By kon is commonly meant the second-order rate constant of association.

The target in one test is T1, PP1α_(7-330) (UniProt P62136 7-330).
T1 construct: Protein Phosphatase 1 alpha (PP1α), residues 7-330; His6-PP1 was captured on the Ni-NTA sensor chip as the SPR ligand; Mn2+ in all buffers; also called Protein Phosphatase 1; His6-PP1; source: E. coli, purified (Ni-NTA, SEC)
Nature of the test: SPR; His6-PP1 captured on Ni-NTA chip (NiHC200M), I3 variants injected; 25 °C; 20 mM Tris pH 8.0, 500 mM NaCl, 1 mM MnCl2, 0.5 mM TCEP, 0.05% Tween-20; one-to-one one state or one-to-one two state model (TraceDrawer). The conditions noted are these: both partners purified. On the technique in general: Surface plasmon resonance follows binding to a sensor surface in real time, without labels.

Test [1] concerns the target T2, His6-PP1α_(7-330) (UniProt P62136 7-330). The experiment in a line: cell-based or functional assay.
The target of test [2] is T2, His6-PP1α_(7-330). The experiment in a line: SPR; His6-PP1 captured on a Ni-NTA sensorchip (NiHC200M), I3 variants injected; 25 °C; 20 mM Tris pH 8.0, 500 mM NaCl, 1 mM MnCl2, 0.5 mM TCEP, 0.05% Tween-20; one-to-one one state or one-to-one two state model. The conditions noted are these: both partners purified.
For a further test, the target named is T3, PP1α7-330 (UniProt P62136 7-330).
T3 construct: Protein Phosphatase 1 alpha catalytic subunit, residues 7-330; For SPR the His6-tagged PP1 was captured on a Ni-NTA chip; also called Protein Phosphatase 1; PP17-330; source: bacterial expression as previously described, purified (Ni-NTA, SEC)
Nature of the test: SPR; His6-PP1 captured on a Ni-NTA sensor chip (NiHC200M), I3 variants injected; 25 °C; 20 mM Tris pH 8.0, 500 mM NaCl, 1 mM MnCl2, 0.5 mM TCEP, 0.05% Tween-20; one-to-one one-state or one-to-one two-state fit. The settings on record: both partners purified.

Values joined by “and” are separate entries in the source; they are usually repeats but may differ in a detail not shown here. Equal entries are not always repeated.

T2 sequence (P62136 7-330): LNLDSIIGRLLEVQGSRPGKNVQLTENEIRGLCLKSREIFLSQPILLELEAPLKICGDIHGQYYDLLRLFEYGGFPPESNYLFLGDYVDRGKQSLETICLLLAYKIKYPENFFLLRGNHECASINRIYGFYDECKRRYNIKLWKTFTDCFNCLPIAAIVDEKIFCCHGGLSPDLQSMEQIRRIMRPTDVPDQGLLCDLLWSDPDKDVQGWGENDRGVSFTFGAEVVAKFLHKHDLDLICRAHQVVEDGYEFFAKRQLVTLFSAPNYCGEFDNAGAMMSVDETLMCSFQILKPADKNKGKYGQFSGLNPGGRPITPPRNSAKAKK
T1 sequence (P62136 7-330): as above
T3 sequence (P62136 7-330): as above

B1: SCS: I3_(27-68) C60S/C62S (domain or fragment, human, UniProt O60927 27-68, looked up)
chain: SLTIKLRKRKPEKKVEWTSDTVDNEHMGRRSSKSCSIYEKPR
notes: PPP1R11), human, residues 27-68, C60S/C62S; also called I3_27-68_SCS; source: E. coli BL21 (DE3), purified (Ni-NTA, TEV cleavage, heat, SEC); not shown: His6, N-terminal, cleaved; MBP, N-terminal, cleaved
For B1, the Kd with PP1α_(7-330) is 45.5 nM and 63.4 nM and 53.1 nM.

B2: CSS: I3_(27-68) C61S/C62S (domain or fragment, human, UniProt O60927 27-68, looked up)
chain: SLTIKLRKRKPEKKVEWTSDTVDNEHMGRRSSKCSSIYEKPR
notes: PPP1R11), human, residues 27-68, C61S/C62S; also called I3_27-68_CSS; source: E. coli BL21 (DE3), purified (Ni-NTA, TEV cleavage, heat, SEC); not shown: His6, N-terminal, cleaved; MBP, N-terminal, cleaved
Regarding B2, the Kd with PP1α_(7-330) was 20.7 nM and 21.6 nM.

B3: IY: I3_(27-68) I63A/Y64A (domain or fragment, human, UniProt O60927 27-68, looked up)
chain: SLTIKLRKRKPEKKVEWTSDTVDNEHMGRRSSKCCCAAEKPR
notes: PPP1R11), human, residues 27-68, I63A/Y64A; also called I3_(27-68) IY; source: E. coli BL21 (DE3), purified (Ni-NTA, TEV cleavage, heat, SEC); not shown: His6, N-terminal, cleaved; MBP, N-terminal, cleaved
In the case of B3, in the test with PP1α_(7-330), the dissociation constant (Kd) is 19 nM and 13.1 nM and 14.3 nM and 15.5 nM.

B4: CSC: I3_(27-68) C61S (domain or fragment, human, UniProt O60927 27-68, looked up)
chain: SLTIKLRKRKPEKKVEWTSDTVDNEHMGRRSSKCSCIYEKPR
notes: PPP1R11), human, residues 27-68, C61S; source: E. coli BL21 (DE3), purified (Ni-NTA, TEV cleavage, heat, SEC); not shown: His6, N-terminal, cleaved; MBP, N-terminal, cleaved
As for B4, the Kd in the test with PP1α_(7-330) is 20.1 nM and 18.7 nM and 17.5 nM.

B5: CCS: I3_(27-68) C62S (domain or fragment, human, UniProt O60927 27-68, looked up)
chain: SLTIKLRKRKPEKKVEWTSDTVDNEHMGRRSSKCCSIYEKPR
notes: PPP1R11), human, residues 27-68, C62S; source: E. coli BL21 (DE3), purified (Ni-NTA, TEV cleavage, heat, SEC); not shown: His6, N-terminal, cleaved; MBP, N-terminal, cleaved
In the case of B5, the Kd with PP1α_(7-330) is 16.1 nM and 17.4 nM and 28.3 nM.

B6: SSS: I3_(27-68) C60S/C61S/C62S (domain or fragment, human, UniProt O60927 27-68, looked up)
chain: SLTIKLRKRKPEKKVEWTSDTVDNEHMGRRSSKSSSIYEKPR
notes: PPP1R11), human, residues 27-68; also called I3_(27-68)SSS; I3_(27-68) SSS; source: E. coli BL21 (DE3), purified (Ni-NTA, TEV, heat 95 °C, SEC); not shown: His6, N-terminal, cleaved; MBP, N-terminal, cleaved
For B6, the “IC50 of PP1 inhibition (dephosphorylation of the H3pT3 peptide, released Pi)” value in the test with His6-PP1α_(7-330) [1] came to 380 nM. In the test with His6-PP1α_(7-330) [2], this molecule returned a Kd of 412 ± 6 nM.

B7: SSC: I3_(27-68) C60S/C61S (domain or fragment, human, UniProt O60927 27-68, looked up)
chain: SLTIKLRKRKPEKKVEWTSDTVDNEHMGRRSSKSSCIYEKPR
notes: PPP1R11), human, residues 27-68, C60S/C61S; also called I3_27-68_SSC; source: E. coli BL21 (DE3), purified (Ni-NTA, TEV cleavage, heat, SEC); not shown: His6, N-terminal, cleaved; MBP, N-terminal, cleaved
B7: the Kd in the test with PP1α_(7-330) was 88 nM and 81.1 nM and 88.3 nM and 89.6 nM.

B8: CCCdeletion: I327-59 (Δ60-68) (domain or fragment, human, UniProt O60927 27-59, looked up)
chain: SLTIKLRKRKPEKKVEWTSDTVDNEHMGRRSSK
notes: also called I3 CCCdeletion; source: E. coli BL21 (DE3), purified (Ni-NTA, TEV cleavage, heat 95 °C, SEC); not shown: His6, N-terminal, cleaved; MBP, N-terminal, cleaved
For the molecule B8, in the test with PP1α7-330, the koff was found to be 0.0766 s⁻¹ and the on-rate (kon) was 210000 M⁻¹ s⁻¹.

B9: CCC_(deletion): I3_(27-59) (Δ60-68) (domain or fragment, human, UniProt O60927 27-59, looked up)
chain: SLTIKLRKRKPEKKVEWTSDTVDNEHMGRRSSK
notes: PPP1R11), human, residues 27-59; also called CCCdead: I327-59 (Δ60-62); I3 27-59 (CCC dead); source: E. coli BL21 (DE3), purified (Ni-NTA, TEV cleavage, heat, SEC); not shown: His6, N-terminal, cleaved; MBP, N-terminal, cleaved
Take B9: in the test with PP1α_(7-330), the Kd was 447 nM and 329 nM and 352 nM; the off-rate (koff) was 0.0749 s⁻¹ and 0.0798 s⁻¹ and 0.0752 s⁻¹ and 0.0766 s⁻¹; the kon is 168000 M⁻¹ s⁻¹ and 242000 M⁻¹ s⁻¹ and 213000 M⁻¹ s⁻¹ and 208000 M⁻¹ s⁻¹.

B10: CCC_(deletion): I3_(27-59) (Δ60-68) (domain or fragment, human, UniProt O60927 27-59, looked up)
chain: SLTIKLRKRKPEKKVEWTSDTVDNEHMGRRSSK
notes: PPP1R11), human, residues 27-59; also called I3 CCC_(deletion) variant; I3_(27-68) CCC_(deletion); source: E. coli BL21 (DE3), purified (Ni-NTA, TEV, heat 95 °C, SEC); not shown: His6, N-terminal, cleaved; MBP, N-terminal, cleaved
Consider B10, for which the “IC50 of PP1 inhibition (dephosphorylation of the H3pT3 peptide, released Pi)” value with His6-PP1α_(7-330) [1] came to 422 nM. The molecule also had a dissociation constant (Kd) with His6-PP1α_(7-330) [2] of 376 ± 47 nM.
